Legend:
[1] = target: T1, subtype 1b derived E2 (BK strain) expressed by recombinant Sindbis virus Sinrep/HCV-BK1-1207 (Hepatitis C virus strain BK (genotype …, UniProt P26663 384-746)); assay: immunoprecipitation from cells infected with Sinrep/HCV-BK1-1207
T1 construct: Immunoprecipitated from lysates of infected cells; also called genotype 1b antigen

[2] = target: T2, E2 glycoprotein expressed by recombinant vaccinia virus vHCV1-1488 (HCV-H) (Hepatitis C virus strain H (genotype 1a), UniProt P27958 384-746); assay: pulse-chase immunoprecipitation, reducing SDS-PAGE
T2 construct: 35S-labelled and immunoprecipitated from cell lysates in pulse-chase experiments
T2 sequence (P27958 384-746 limits assumed): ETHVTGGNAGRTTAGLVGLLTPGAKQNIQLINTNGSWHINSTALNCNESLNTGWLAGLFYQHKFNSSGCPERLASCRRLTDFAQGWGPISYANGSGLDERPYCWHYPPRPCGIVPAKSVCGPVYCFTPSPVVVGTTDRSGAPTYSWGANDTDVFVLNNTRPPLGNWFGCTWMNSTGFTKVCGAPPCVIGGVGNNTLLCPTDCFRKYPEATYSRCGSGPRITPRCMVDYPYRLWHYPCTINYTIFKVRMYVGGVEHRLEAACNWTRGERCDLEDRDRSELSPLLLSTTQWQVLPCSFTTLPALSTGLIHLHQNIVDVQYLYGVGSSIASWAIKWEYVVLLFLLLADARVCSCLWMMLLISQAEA

T1 sequence (P26663 384-746 limits assumed): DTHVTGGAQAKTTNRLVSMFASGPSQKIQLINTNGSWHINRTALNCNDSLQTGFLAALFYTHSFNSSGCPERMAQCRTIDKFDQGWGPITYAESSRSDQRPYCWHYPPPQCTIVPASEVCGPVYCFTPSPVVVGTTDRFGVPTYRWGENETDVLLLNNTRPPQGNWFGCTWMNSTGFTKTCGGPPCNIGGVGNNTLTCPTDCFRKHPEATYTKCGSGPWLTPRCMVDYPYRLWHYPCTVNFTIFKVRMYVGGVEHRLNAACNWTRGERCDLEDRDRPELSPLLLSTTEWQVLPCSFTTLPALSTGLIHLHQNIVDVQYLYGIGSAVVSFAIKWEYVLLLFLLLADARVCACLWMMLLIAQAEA

B1: HMAb 503 (antibody, V domains shown)
VH: QVQLQQWGAGLLKPSETLSLTCAVYGGSLSGYFWTWIRQSPGKGLEWIGESNYSGSTRYNPSLKSRVTISVDTSQNQFSLKLSSVTAADTAVYYCARGWAVDGMDVWGQGTTVTVSS
VL: SYELTQPPSVSVSPGQTARITCSGDALPKQYAYWYQQKPGQAPVLVIYKDNERPSGIPERFSGSRSGTTVTLTISGVQAEDEADYYCQSADSSGSSWVFGGGTKLTVL
notes: also called antibody 503; clone 503
- binding result [1]: binds
- binding result [2]: binds

Reference: US20060153833A1 (Genmab, published 2006)
